Reference: PMC6917738, “Cooperative ordering of treadmilling filaments in cytoskeletal networks of FtsZ and its crosslinker ZapA” (Nature Communications, 2019)
Read-outs that look alike come from different tables or passages of the source.

T1: FtsZ (UniProt P0A9A6 1-383, Cy5 or Alexa488 label on part of the protein (30% labelled in the self-organization assay; <2 nM Cy5-labelled FtsZ in 1.5 uM Alexa488-labelled FtsZ for single molecules); labelled site not stated)
T1 sequence (looked up): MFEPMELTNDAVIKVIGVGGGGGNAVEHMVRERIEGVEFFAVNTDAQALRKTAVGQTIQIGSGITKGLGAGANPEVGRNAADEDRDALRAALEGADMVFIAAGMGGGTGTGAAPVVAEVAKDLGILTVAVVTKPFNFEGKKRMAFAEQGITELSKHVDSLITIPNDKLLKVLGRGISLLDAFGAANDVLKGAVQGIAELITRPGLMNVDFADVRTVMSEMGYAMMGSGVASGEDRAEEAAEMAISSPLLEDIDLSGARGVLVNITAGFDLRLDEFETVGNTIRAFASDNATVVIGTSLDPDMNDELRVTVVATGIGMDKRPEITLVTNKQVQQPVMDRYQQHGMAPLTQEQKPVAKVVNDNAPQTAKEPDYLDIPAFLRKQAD


What was measured:
[1] = target: FtsZ (UniProt P0A9A6); assay: single-molecule tracking by TIRF microscopy; small amounts of Cy5-labelled FtsZ (<2 nM) in 1.5 uM Alexa488-FtsZ, or of ZapA-Cy5 in unlabeled ZapA with 1.5 uM Alexa488-FtsZ, on supported bilayers; lifetime from a mono-exponential fit, corrected for photobleaching
[2] = target: FtsZ (UniProt P0A9A6); assay: as above; remark: listed apart in the source
[3] = target: FtsZ (UniProt P0A9A6); assay: FRAP; membrane-bound filament network at steady state (15 min), small area bleached; half-time from fit to I(t) = a(1 - exp(-bt))
[4] = target: the molecule itself; assay: SEC; size-exclusion chromatography of ZapA wild type and mutants; conditions not shown
[5] = target: T1, FtsZ; assay: cell-based or functional assay

Row | Molecule | single-molecule lifetime [1] | single-molecule lifetime [2] [s] | FRAP half-time of recovery [3] [s] | stoichiometry N [4] | EC50 of ZapA for the correlation length of the FtsZ filament network at steady state (ρss) [5] [nM] | EC50 of ZapA for the mean curvature of the FtsZ filament network at steady state (kss) [5] [nM]
1 | ZapA-Cy5 (from UniProt P0ADS2 1-109) (natural protein) | 0.95 | 0.94 | 3.01 |  |  | 
2 | ZapA wild type (natural protein, UniProt P0ADS2 1-109, looked up, ZapA, FtsZ-associated protein; also called ZapA WT; source: purified protein; protocols in the Supplementary Information) MSAQPVDIQIFGRSLRVNCPPDQRDALNQAADDLNQRLQDLKERTRVTNTEQLVFIAALNISYELAQEKAKTRDYAASMEQRIRMLQQTIEQALLEQGRITEKTNQNFE |  |  |  | 4 | 1050 | 840
